Assay results taken from publication doi:10.1101/553636.

Target: BD-Barstar D35A
Assay: two-hybrid

AD-Barnase H102A (enzyme) was tested, and the Kd was 11 to 122 nM.
